Assay results published in patent US20210261663A1 (JIANGSU HENGRUI MEDICINE, published 2021).

Target: T1, human TIM-3 full-length, overexpressed on CHO-S cells (human, UniProt Q8TDQ0 22-301)
T1 construct: also called HAVCR2; Tim-3 overexpressing CHO-S cells
Assay: cell-based ELISA on fixed CHO-S cells overexpressing full-length human TIM-3, HRP secondary antibody, OD450

EC50 (read off the curve): ~0.1 nM
B1: ABTim-3 (antibody, V domains shown)
VH: QVQLQQPGAELVKPGASVKMSCKASGYTFTSYNMHWIKQTPGQGLEWIGDIYPGNGDTSYNQKFKGKATLTADKSSSTVYMQLSSLTSEDSAVYYCARVGGAFPMDYWGQGTSVTVSS
VL: DIVLTQSPASLAVSLGQRATISCRASESVEYYGTSLMQWYQQKPGQPPKLLIYAASNVESGVPARFSGSGSGTDFSLNIHPVEEDDIAIYFCQQSRKDPSTFGGGTKLEIK
